US10626154B2, “Binding domains directed against GPCR:G protein complexes and uses derived thereof” (VIB VZW, priority 2011, dated 2020)
“Also recorded” adds a separate entry of the source. Like-named read-outs stand apart in the source and are kept apart here. One block for each molecule: values may come before it.

What was measured:
β2AR-365:Gs complex [1] = molecular target: T1, β2AR-365:Gs complex (UniProt P04896+P07550, E27Q/G16R/N187E); test: analytical gel filtration: effect of nucleotide analogs on the R:G complex; assay type: biochemical; conditions: for effect of nucleotides on the β2AR:Gs complex: 0.1 mM (FIG. 3A); for effect of phosphates resembling nucleotide phosphate groups on the complex: 5 mM
T1 construct: A β2AR construct truncated after residue 365; Flag (M1); made in house; host or cells: High 5 insect cells (Gs subunits)
Procedure: FIGS. 3A-3G: Effect of nucleotide analogs, pH, and nanobodies on the stability of the β2AR:Gs complex. […] FIG. 3C, The pH limit was determined to guide the preparation of crystallization screens. For the same purpose the effect of ionic strength (data not shown) was determined using NaCl at various concentrations.
To maintain the high-affinity nucleotide-free state of the complex, apyrase (25 mU/ml, NEB) was added after 90 min to hydrolyze residual GDP released from Gαs upon binding to the receptor.

[2] = molecular target: T2, AVP:NT4LV2R:Gs complex (Arginine vasopressin receptor 2) (Homo sapiens, UniProt P30518); test: SEC stability of the AVP:NT4LV2R:Gs complex; assay type: biochemical
T2 construct: The N-terminally fused T4L V2R construct (NT4L-V2R); His tag (only implied by nickel-NTA purification of the receptor); made in house; host or cells: Sf9 (NT4L-V2R); High 5 (Gs); E. coli WK6 (Nb35)
Procedure: Arginine vasopressin (AVP), also known as vasopressin, argipressin or antidiuretic hormone, is a natural ligand that activates Arginine vasopressin receptor 2.
Formation of a stable complex (FIG. 19, Panel a) was accomplished by mixing His tagged Gs heterotrimer at approximately 90 μM concentration with AVP bound NT4LV2R (90 μM) and NB35 (100 μM) in 0.1 ml buffer (10 mM HEPES, pH 7.5, 100 mM NaCl, 0.1% DDM, 1 mM EDTA, 3 mM MgCl2, 10 μM AVP) and incubated for 2 hours at room temperature. Next, the AVP:NT4LV2R:Gs complex was purified in two successive affinity purification steps. The purification was monitored by SDS-PAGE (FIG. 19). First, the complex was applied on a Ni-NTA column after adding 300 μl of 1% MNG in 10 mM HEPES, pH 7.5, 100 mM NaCl buffer onto the reaction mix. Following extensive washing with buffer, the complex was eluted in 0.2% MNG, 10 mM HEPES, pH 7.5, 100 mM NaCl AVP 10 μM with 200 mM imidazole. Next the complex was applied on a FLAG-tag affinity column, washed extensively in the same buffer containing 0.01% MNG and eluted with the FLAG-peptide. […] This complex was further purified by SEC on a superdex200 column in 10 mM HEPES, pH 7.5, 100 mM NaCl, 0.01% MNG, 1 mM EDTA, 3 mM MgCl2, 1 μM AVP). […]

β2AR-365:Gs complex [3] = molecular target: T1, β2AR-365:Gs complex; test: analytical gel filtration: stability of the R:G complex in detergents; conditions: for stability of the R:G complex in detergent: 48 hrs at 4° C.
Procedure: (§1) FIG. 4: Stabilizing effect of MNG-3 on the R:G complex. Panel a) Analytical gel filtration of β2AR-365:Gs complexes purified in DDM (in black), MNG-3 (in blue), or two MNG-3 analogs (in red and green) following incubation for 48 hrs at 4° C. In contrast to DDM the R:G complexes are stable in the MNG detergents. Panel b) Effect of diluting unliganded purified β2AR in DDM or MNG-3 below the critical micelle concentration (CMC) of the detergent as assayed by 3H-dihydro alprenolol (3H-DHA) saturation binding.
One challenge for crystallogenesis was to prepare a stable β2AR:Gs complex in detergent solution. The β2AR and Gs couple efficiently in lipid bilayers, but not in detergents used to solubilize and purify these proteins (Example 1). […] Apyrase, a non-selective purine pyrophosphatase, was added to hydrolyze GDP released from Gs on forming a complex with the β2AR. The complex was subsequently purified by sequential antibody affinity chromatography and size exclusion chromatography. The stability of the complex was enhanced by exchanging it into a recently developed maltose neopentyl glycol detergent (NG-310, Anatrace) (Chae et al., 2010).

unliganded purified β2AR = molecular target: T3, unliganded purified β2AR (Homo sapiens, UniProt P07550); test: 3H-DHA saturation binding after dilution of detergent below the CMC; conditions: diluted 1000-fold below the CMC; DDM after 20 sec, MNG-3 after 24 hrs
T3 construct: made in house
Procedure: as §1

[4] = tested on: β2AR:Gs:BI167107 ternary complex; test: analytical gel filtration (size exclusion chromatography) of nanobody binding to the ternary complex; set-up: species or system human β2AR; bovine Gαs, rat Gβ1, rat Gγ2; conditions: for epitope on the Gs heterotrimer relative to Nb37 (size exclusion chromatography): forms R:G:Nb:Nb37 complex
β2AR:Gs:BI167107 complex = test: analytical size exclusion chromatography of the ternary complex in the presence and absence of GTPγS; assay type: biochemical, human β2AR; bovine Gαs, rat Gβ1, rat Gγ2
Procedure: The mutual effects of Nbs and the non-hydrolyzable GTP analog GTPγS on the integrity of the agonist:β2AR:Gs ternary complex was analyzed by analytical size exclusion chromatography in the presence and absence of GTPγS.

purified Gαs = molecular target: T4, purified Gαs (Bos taurus, UniProt P04896); test: Bodipy-GTPγS-FL fluorescence nucleotide binding assay on Gαs; assay type: biochemical, Bovine; conditions: 100 nM Bodipy-GTPγS-FL, 1 μM purified Gαs, increasing concentrations of nanobody, 300 seconds
T4 construct: made in house
Procedure: (§2) To investigate the effect of nanobodies (Nb35 and Nb37) on Gs alone, nanobodies were added together with bodipy-GTPγS-FL and various Gs protein preparations in 20 mM Tris-HCl, Ph 8.0, 3 mM MgCl2, 1 mM DTT in a final volume of 200 μL. Samples containing a heterotrimeric Gs protein also included 0.1% DDM. Bodipy-GTPγS-FL is a stable fluorescent GTP analog (λex≈470 nm, λem≈515 nm). Its fluorescence intensity increases upon G protein binding and Bodipy-GTPγS-FL can therefore be used for real-time measurements of nucleotide binding to G proteins (McEwen et al., 2001). Fluorescence was measured in a 96-well microtiter plate format on a M5 fluorescence plate reader (Molecular […]).
In a first experiment (FIG. 16), increasing amounts of Nb37 were incubated with 1 μM purified GαS and 100 nM Bodipy-GTPγS-FL and the fluorescence increase was measured on a short time scale (300 seconds) to minimize the accumulation of the hydrolysis product bodipy-phosphate (Jameson et al., 2005). The Gαs subunit of the heterotrimeric Gs protein was purified as described previously (Sunahara et al., 1997). […] In a similar experiment (FIG. 17), increasing amounts of Nb35 were incubated with 1 μM purified GαS and 100 nM Bodipy-GTPγS-FL.

[5] = molecular target: T5, purified Gsαβγ heterotrimer (UniProt P04896+P54311); test: Bodipy-GTPγS-FL fluorescence nucleotide binding assay on Gs heterotrimer; assay type: biochemical, bovine Gαs, rat Gβ1, rat Gγ2; conditions: 100 nM Bodipy-GTPγS-FL, 1 μM purified Gsαβγ heterotrimer, increasing concentrations of nanobody
T5 construct: made in house; host or cells: High 5 insect cells
Procedure: as §2
In another experiment (FIG. 18), increasing amounts of Nb35 were incubated with 1 μM of the purified Gs αβγ heterotrimer and 100 nM Bodipy-GTPγS-FL.

effect of antagonist on the AVP:NT4LV2R:Gs complex ([2]; 10 μM): disrupts the AVP:NT4LV2R:Gs complex
Molecule: CCOc1ccc2c(c1)C1(CCC(OCCN3CCOCC3)CC1)C(=O)N2S(=O)(=O)c1ccc(C(=O)NC(C)(C)C)cc1OC (stereo not shown) [SR121463, reference compound]

effect of M96T and M98T receptor mutations on ligand affinity (T4L-β2AR): two-fold decrease in affinity
Molecule: CC(C)NCC(O)c1ccc(O)c(O)c1 (stereo not shown) [isoproterenol]

stability of the β2AR:Gs complex in detergent at room temperature (β2AR-365:Gs complex [3]; room temperature for 24 hours): without any noticeable degradation
Molecule: CCCCCCCCCCC(CCCCCCCCCC)(CO[C@@H]1O[C@H](CO)[C@@H](O[C@H]2O[C@H](CO)[C@@H](O)[C@H](O)[C@H]2O)[C@H](O)[C@H]1O)CO[C@@H]1O[C@H](CO)[C@@H](O[C@H]2O[C@H](CO)[C@@H](O)[C@H](O)[C@H]2O)[C@H](O)[C@H]1O [MNG-3]
stability of the R:G complex in detergent (β2AR-365:Gs complex [3]): substantially stabilize the complex; also recorded: stable
3H-DHA binding of β2AR after dilution of detergent (unliganded purified β2AR): maintained full ability to bind the radioligand

effect of phosphates resembling nucleotide phosphate groups on the complex (β2AR-365:Gs complex [1]): did not cause disruption of the complex
Molecule: O=C(O)P(=O)(O)O [forcarnet]

binding to the β2AR:Gs:BI167107 ternary complex by analytical gel filtration [4]: further confirmed
B1: Nb37: nanobody, SEQ ID NO: 4, binds the Gsα subunit (protein, listed as Lama glama)
VHH: QVQLQESGGGFVQAGGSLRLSCAASGSIFSKNTMAWFRQAPGKERELVAASPTGGSTAYKDSVKGRFTISRDSAKNTVLLQMNVLKPEDTAVYYCHLRQNNRGSWFHYWGQGTQVTVSSHHHHHHEPEA
protection of the ternary complex from dissociation by GTPγS (β2AR:Gs:BI167107 complex): insensitive to GTPγS treatment
protection of the ternary complex from dissociation by GTPγS (β2AR:Gs:BI167107 complex; listed as 37): protect the β2AR:Gs:BI167107 complex from dissociation
effect on GTPγS binding to Gαs alone (purified Gαs): blocks GTPγS binding to Gsα alone in a dose dependent manner; also recorded: inhibits GTPγS binding to Gαs

binding to the β2AR:Gs:BI167107 ternary complex by analytical gel filtration [4]: further confirmed
epitope on the Gs heterotrimer relative to Nb37 (size exclusion chromatography) [4]: bind separate epitopes
B2: Nb36: nanobody, SEQ ID NO: 3, binds Gs (protein, listed as Lama glama)
VHH: QVQLQESGGGSVQAGGSLRLSCTVSGTIFSVTVMGWYRQAPGKQRELVAGFTNTRNTNYVDSVKGRFTISKDSAKNTMYLQMNSLKPEDTAVYYCNVRRWGGTNWNDYWGQGTQVTVSSHHHHHHEPEA
protection of the ternary complex from dissociation by GTPγS (β2AR:Gs:BI167107 complex): less sensitive to GTPγS treatment
protection of the ternary complex from dissociation by GTPγS (β2AR:Gs:BI167107 complex; listed as 36): protect the β2AR:Gs:BI167107 complex from dissociation

binding to the β2AR:Gs:BI167107 ternary complex by analytical gel filtration [4]: further confirmed
epitope on the Gs heterotrimer relative to Nb37 (size exclusion chromatography) [4]: bind separate epitopes
B3: Nb35: nanobody, SEQ ID NO: 1; binds Gs at the interface of Gα and Gβ subunits (protein, listed as Lama glama)
VHH: QVQLQESGGGLVQPGGSLRLSCAASGFTFSNYKMNWVRQAPGKGLEWVSDISQSGASISYTGSVKGRFTISRDNAKNTLYLQMNSLKPEDTAVYYCARCPAPFTRDCFDVTSTTYAYRGQGTQVTVSSHHHHHHEPEA
protection of the ternary complex from dissociation by GTPγS (β2AR:Gs:BI167107 complex): protects the complex from dissociation by GTPγS; also recorded: insensitive to GTPγS treatment
protection of the ternary complex from dissociation by GTPγS (β2AR:Gs:BI167107 complex; listed as 35): protect the β2AR:Gs:BI167107 complex from dissociation
effect on GTPγS binding to Gαs alone (purified Gαs): has no effect on GTPγS binding; also recorded: does not affect GTPγS binding to Gαs
effect on GTPγS binding to the Gsαβγ heterotrimer [5]: blocks GTPγS binding to the free Gsαβγ heterotrimer in a dose dependent manner; also recorded: inhibits GTPγS binding to the Gsαβγ heterotrimer
stability of the V2R:Gs:AVP complex with nanobody in SEC ([2]; complex of V2R, Gs, Nb35 and AVP): demonstrated the stability of this complex in SEC

Continued, molecule first:

Molecule: Nc1nc2c(ncn2[C@@H]2O[C@H](COP(=O)(O)OP(=O)(O)OP(O)(O)=S)[C@@H](O)[C@H]2O)c(=O)[nH]1 [GTPγS]
effect of nucleotides on the β2AR:Gs complex (β2AR-365:Gs complex [1]): causes dissociation of the β2AR-365:Gs complex

Molecule: Nc1nc2c(ncn2[C@@H]2O[C@H](COP(=O)(O)OP(=O)(O)O)[C@@H](O)[C@H]2O)c(=O)[nH]1 [GDP, guanosine diphosphate]
effect of nucleotides on the β2AR:Gs complex (β2AR-365:Gs complex [1]): disrupt the β2AR:Gs complex; also recorded: causes dissociation of the β2AR-365:Gs complex

Molecule: O=P(O)(O)OP(=O)(O)O [pyrophosphate]
effect of phosphates resembling nucleotide phosphate groups on the complex (β2AR-365:Gs complex [1]): did not cause disruption of the complex

Molecule: Nc1nc2c(ncn2[C@@H]2O[C@H](COP(=O)(O)OP(=O)(O)OP(=O)(O)O)[C@@H](O)[C@H]2O)c(=O)[nH]1 [GTP, guanosine triphosphate]
effect of nucleotides on the β2AR:Gs complex (β2AR-365:Gs complex [1]): disrupt the β2AR:Gs complex

Molecule: CCCCCCCCCCCCO[C@@H]1O[C@H](CO)[C@@H](O[C@H]2O[C@H](CO)[C@@H](O)[C@H](O)[C@H]2O)[C@H](O)[C@H]1O [DDM, n-Dodecyl-β-D-maltoside]
stability of the R:G complex in detergent (β2AR-365:Gs complex [3]): significant dissociation
3H-DHA binding of β2AR after dilution of detergent (unliganded purified β2AR): loss in 3H-DHA binding

Molecule: CCCc1ccccc1OCC(O)CNC(C)C (stereo not shown) [^3H-dihydro-alprenolol]
effect of M96T and M98T receptor mutations on ligand affinity (T4L-β2AR; data not shown): did not affect ligand binding affinity
